According to patent US20230242902A1, “A HIGHLY ERROR-PRONE […] R[…] FOR TARGETED CONTINUOUS EVOLUTION IN VIVO” (The Regents of the University of California, priority 2017, published 2023):

B1: S705F: TP-DNAP1 variant (protein)
chain: MDYKDKALNDLRNVYADFDSLPLDFRQILIKDRATLLQKEDVEKKILERQEDAKKYAEYLKQSEIPERISLPNIKRHKGVSISFEETSEDMVLEPRPFIFDGLNIRCFRRETIFSLKNKILNMVKESSSFKNVSRQSVSFMYFKIFNKGKVIASTKSVNIYEDKIDERLEDLCNNFDDVLKKIIDVTYGYESLFVSETYSYVIFYAKSIYFPQPRCVNNWGNNIPNILTFDSFKLFTANKNNVSCIKQCSRFLWQKDFNTLEEMIEYKNGNICIVTPQLHINDVRDIKSFNDIRLYSESPIKTFSVIDNTITYLFYFKEHLGVIFNITKSRHDRRVTKFSPLSKFSDVKNITVCFDIESYFDPEKESNQVNIPFICCASIIYNKVIGNIVDFEGRDCVAQMIEYVVDICGELNISSVELIAHNGGGYDFHYILSSMYNPAAIKNILIRNNSFISFNFAHDGVKFSVKDSYSFLLCSLANASKAFLNEETFKKTDFPHHDLKTADDLYKVYKEWSSVNTEINHVVEKEKLLITSEHIVNFTKNDKSKTLIEWSKDYCRNDVLVLSKVWLEFKNAVEDIFNCELVDQTMTLAGLSYKLFQANMPFDVELRHPNKEDYFNMREALIGGRCISVNGIYKDVLCLDVKSLYPASMAFYDQPYGSFKRVSSRPKDELGIYYVRVTPNRNNKSNFFPIRSHNKITYNNFEEFTYIAWYTNVDIDIGLSEGHNIEYIPFDSYGNIGYSWSKKGKIFEKYIKDVLYKLKIKYEKQNNKVKRNVIKIIMNSLWGKFAQKWVNFEYFIKSEDDIDFESEEAYKIWDTDFMLIKKIKESTYSSKPIQNGVFTLSWARYHMKSIWDAGAKEGAECIYSDTDSIFVHKEHFKKNAKFMLNGLKVPIIGSEVGQLELECEFDKLLCAGKKQYMGFYTYFQDGKPCIKEKKRFKGIPSNYIIPELYAHLLSGADKEAKIQFLKFRREWGSVKGYIENKTVKAT
B2: T706R: TP-DNAP1 variant (protein)
chain: MDYKDKALNDLRNVYADFDSLPLDFRQILIKDRATLLQKEDVEKKILERQEDAKKYAEYLKQSEIPERISLPNIKRHKGVSISFEETSEDMVLEPRPFIFDGLNIRCFRRETIFSLKNKILNMVKESSSFKNVSRQSVSFMYFKIFNKGKVIASTKSVNIYEDKIDERLEDLCNNFDDVLKKIIDVTYGYESLFVSETYSYVIFYAKSIYFPQPRCVNNWGNNIPNILTFDSFKLFTANKNNVSCIKQCSRFLWQKDFNTLEEMIEYKNGNICIVTPQLHINDVRDIKSFNDIRLYSESPIKTFSVIDNTITYLFYFKEHLGVIFNITKSRHDRRVTKFSPLSKFSDVKNITVCFDIESYFDPEKESNQVNIPFICCASIIYNKVIGNIVDFEGRDCVAQMIEYVVDICGELNISSVELIAHNGGGYDFHYILSSMYNPAAIKNILIRNNSFISFNFAHDGVKFSVKDSYSFLLCSLANASKAFLNEETFKKTDFPHHDLKTADDLYKVYKEWSSVNTEINHVVEKEKLLITSEHIVNFTKNDKSKTLIEWSKDYCRNDVLVLSKVWLEFKNAVEDIFNCELVDQTMTLAGLSYKLFQANMPFDVELRHPNKEDYFNMREALIGGRCISVNGIYKDVLCLDVKSLYPASMAFYDQPYGSFKRVSSRPKDELGIYYVRVTPNRNNKSNFFPIRSHNKITYNNFEESRYIAWYTNVDIDIGLSEGHNIEYIPFDSYGNIGYSWSKKGKIFEKYIKDVLYKLKIKYEKQNNKVKRNVIKIIMNSLWGKFAQKWVNFEYFIKSEDDIDFESEEAYKIWDTDFMLIKKIKESTYSSKPIQNGVFTLSWARYHMKSIWDAGAKEGAECIYSDTDSIFVHKEHFKKNAKFMLNGLKVPIIGSEVGQLELECEFDKLLCAGKKQYMGFYTYFQDGKPCIKEKKRFKGIPSNYIIPELYAHLLSGADKEAKIQFLKFRREWGSVKGYIENKTVKAT
B3: T706G: TP-DNAP1 variant (protein)
chain: MDYKDKALNDLRNVYADFDSLPLDFRQILIKDRATLLQKEDVEKKILERQEDAKKYAEYLKQSEIPERISLPNIKRHKGVSISFEETSEDMVLEPRPFIFDGLNIRCFRRETIFSLKNKILNMVKESSSFKNVSRQSVSFMYFKIFNKGKVIASTKSVNIYEDKIDERLEDLCNNFDDVLKKIIDVTYGYESLFVSETYSYVIFYAKSIYFPQPRCVNNWGNNIPNILTFDSFKLFTANKNNVSCIKQCSRFLWQKDFNTLEEMIEYKNGNICIVTPQLHINDVRDIKSFNDIRLYSESPIKTFSVIDNTITYLFYFKEHLGVIFNITKSRHDRRVTKFSPLSKFSDVKNITVCFDIESYFDPEKESNQVNIPFICCASIIYNKVIGNIVDFEGRDCVAQMIEYVVDICGELNISSVELIAHNGGGYDFHYILSSMYNPAAIKNILIRNNSFISFNFAHDGVKFSVKDSYSFLLCSLANASKAFLNEETFKKTDFPHHDLKTADDLYKVYKEWSSVNTEINHVVEKEKLLITSEHIVNFTKNDKSKTLIEWSKDYCRNDVLVLSKVWLEFKNAVEDIFNCELVDQTMTLAGLSYKLFQANMPFDVELRHPNKEDYFNMREALIGGRCISVNGIYKDVLCLDVKSLYPASMAFYDQPYGSFKRVSSRPKDELGIYYVRVTPNRNNKSNFFPIRSHNKITYNNFEESGYIAWYTNVDIDIGLSEGHNIEYIPFDSYGNIGYSWSKKGKIFEKYIKDVLYKLKIKYEKQNNKVKRNVIKIIMNSLWGKFAQKWVNFEYFIKSEDDIDFESEEAYKIWDTDFMLIKKIKESTYSSKPIQNGVFTLSWARYHMKSIWDAGAKEGAECIYSDTDSIFVHKEHFKKNAKFMLNGLKVPIIGSEVGQLELECEFDKLLCAGKKQYMGFYTYFQDGKPCIKEKKRFKGIPSNYIIPELYAHLLSGADKEAKIQFLKFRREWGSVKGYIENKTVKAT
B4: T706Q: TP-DNAP1 variant (protein)
chain: MDYKDKALNDLRNVYADFDSLPLDFRQILIKDRATLLQKEDVEKKILERQEDAKKYAEYLKQSEIPERISLPNIKRHKGVSISFEETSEDMVLEPRPFIFDGLNIRCFRRETIFSLKNKILNMVKESSSFKNVSRQSVSFMYFKIFNKGKVIASTKSVNIYEDKIDERLEDLCNNFDDVLKKIIDVTYGYESLFVSETYSYVIFYAKSIYFPQPRCVNNWGNNIPNILTFDSFKLFTANKNNVSCIKQCSRFLWQKDFNTLEEMIEYKNGNICIVTPQLHINDVRDIKSFNDIRLYSESPIKTFSVIDNTITYLFYFKEHLGVIFNITKSRHDRRVTKFSPLSKFSDVKNITVCFDIESYFDPEKESNQVNIPFICCASIIYNKVIGNIVDFEGRDCVAQMIEYVVDICGELNISSVELIAHNGGGYDFHYILSSMYNPAAIKNILIRNNSFISFNFAHDGVKFSVKDSYSFLLCSLANASKAFLNEETFKKTDFPHHDLKTADDLYKVYKEWSSVNTEINHVVEKEKLLITSEHIVNFTKNDKSKTLIEWSKDYCRNDVLVLSKVWLEFKNAVEDIFNCELVDQTMTLAGLSYKLFQANMPFDVELRHPNKEDYFNMREALIGGRCISVNGIYKDVLCLDVKSLYPASMAFYDQPYGSFKRVSSRPKDELGIYYVRVTPNRNNKSNFFPIRSHNKITYNNFEESQYIAWYTNVDIDIGLSEGHNIEYIPFDSYGNIGYSWSKKGKIFEKYIKDVLYKLKIKYEKQNNKVKRNVIKIIMNSLWGKFAQKWVNFEYFIKSEDDIDFESEEAYKIWDTDFMLIKKIKESTYSSKPIQNGVFTLSWARYHMKSIWDAGAKEGAECIYSDTDSIFVHKEHFKKNAKFMLNGLKVPIIGSEVGQLELECEFDKLLCAGKKQYMGFYTYFQDGKPCIKEKKRFKGIPSNYIIPELYAHLLSGADKEAKIQFLKFRREWGSVKGYIENKTVKAT
B5: T706P: TP-DNAP1 variant (protein)
chain: MDYKDKALNDLRNVYADFDSLPLDFRQILIKDRATLLQKEDVEKKILERQEDAKKYAEYLKQSEIPERISLPNIKRHKGVSISFEETSEDMVLEPRPFIFDGLNIRCFRRETIFSLKNKILNMVKESSSFKNVSRQSVSFMYFKIFNKGKVIASTKSVNIYEDKIDERLEDLCNNFDDVLKKIIDVTYGYESLFVSETYSYVIFYAKSIYFPQPRCVNNWGNNIPNILTFDSFKLFTANKNNVSCIKQCSRFLWQKDFNTLEEMIEYKNGNICIVTPQLHINDVRDIKSFNDIRLYSESPIKTFSVIDNTITYLFYFKEHLGVIFNITKSRHDRRVTKFSPLSKFSDVKNITVCFDIESYFDPEKESNQVNIPFICCASIIYNKVIGNIVDFEGRDCVAQMIEYVVDICGELNISSVELIAHNGGGYDFHYILSSMYNPAAIKNILIRNNSFISFNFAHDGVKFSVKDSYSFLLCSLANASKAFLNEETFKKTDFPHHDLKTADDLYKVYKEWSSVNTEINHVVEKEKLLITSEHIVNFTKNDKSKTLIEWSKDYCRNDVLVLSKVWLEFKNAVEDIFNCELVDQTMTLAGLSYKLFQANMPFDVELRHPNKEDYFNMREALIGGRCISVNGIYKDVLCLDVKSLYPASMAFYDQPYGSFKRVSSRPKDELGIYYVRVTPNRNNKSNFFPIRSHNKITYNNFEESPYIAWYTNVDIDIGLSEGHNIEYIPFDSYGNIGYSWSKKGKIFEKYIKDVLYKLKIKYEKQNNKVKRNVIKIIMNSLWGKFAQKWVNFEYFIKSEDDIDFESEEAYKIWDTDFMLIKKIKESTYSSKPIQNGVFTLSWARYHMKSIWDAGAKEGAECIYSDTDSIFVHKEHFKKNAKFMLNGLKVPIIGSEVGQLELECEFDKLLCAGKKQYMGFYTYFQDGKPCIKEKKRFKGIPSNYIIPELYAHLLSGADKEAKIQFLKFRREWGSVKGYIENKTVKAT
B6: T706W: TP-DNAP1 variant (protein)
chain: MDYKDKALNDLRNVYADFDSLPLDFRQILIKDRATLLQKEDVEKKILERQEDAKKYAEYLKQSEIPERISLPNIKRHKGVSISFEETSEDMVLEPRPFIFDGLNIRCFRRETIFSLKNKILNMVKESSSFKNVSRQSVSFMYFKIFNKGKVIASTKSVNIYEDKIDERLEDLCNNFDDVLKKIIDVTYGYESLFVSETYSYVIFYAKSIYFPQPRCVNNWGNNIPNILTFDSFKLFTANKNNVSCIKQCSRFLWQKDFNTLEEMIEYKNGNICIVTPQLHINDVRDIKSFNDIRLYSESPIKTFSVIDNTITYLFYFKEHLGVIFNITKSRHDRRVTKFSPLSKFSDVKNITVCFDIESYFDPEKESNQVNIPFICCASIIYNKVIGNIVDFEGRDCVAQMIEYVVDICGELNISSVELIAHNGGGYDFHYILSSMYNPAAIKNILIRNNSFISFNFAHDGVKFSVKDSYSFLLCSLANASKAFLNEETFKKTDFPHHDLKTADDLYKVYKEWSSVNTEINHVVEKEKLLITSEHIVNFTKNDKSKTLIEWSKDYCRNDVLVLSKVWLEFKNAVEDIFNCELVDQTMTLAGLSYKLFQANMPFDVELRHPNKEDYFNMREALIGGRCISVNGIYKDVLCLDVKSLYPASMAFYDQPYGSFKRVSSRPKDELGIYYVRVTPNRNNKSNFFPIRSHNKITYNNFEESWYIAWYTNVDIDIGLSEGHNIEYIPFDSYGNIGYSWSKKGKIFEKYIKDVLYKLKIKYEKQNNKVKRNVIKIIMNSLWGKFAQKWVNFEYFIKSEDDIDFESEEAYKIWDTDFMLIKKIKESTYSSKPIQNGVFTLSWARYHMKSIWDAGAKEGAECIYSDTDSIFVHKEHFKKNAKFMLNGLKVPIIGSEVGQLELECEFDKLLCAGKKQYMGFYTYFQDGKPCIKEKKRFKGIPSNYIIPELYAHLLSGADKEAKIQFLKFRREWGSVKGYIENKTVKAT

System: p1
Test: p1 copy number by p1-encoded mKate2 fluorescence
Assay type: cell-based, S. cerevisiae
Details: OR-Y24, measured in triplicate
Outline: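 Steps: transform TP-DNAP1 variant into OR-Y24; passage until w.t. p1 displaced; dilute 1:10,000 and grow to saturation in triplicate; measure p1-encoded mKate2 fluorescence; convert to copy number via linear qPCR-based calibration. Four high-copy variants were checked directly by qPCR.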

Molecule	Mean fold-increase over w.t. (p1 copy number)
B1	1.76 fold
B2	2 fold
B3	1.72 fold
B4	2.92 fold
B5	1.73 fold
B6	1.73 fold
